Data reported in article PMC3567212 (Biochemistry, 2012).
Where a chain is given by its changes, count along the chain named.

B1: Rhizobium etli pyruvate carboxylase R472S (enzyme, UniProt Q2K340 1-1154, looked up)
chain: MPISKILVANRSEIAIRVFRAANELGIKTVAIWAEEDKLALHRFKADESYQVGRGPHLARDLGPIESYLSIDEVIRVAKLSGADAIHPGYGLLSESPEFVDACNKAGIIFIGPKADTMRQLGNKVAARNLAISVGVPVVPATEPLPDDMAEVAKMAAAIGYPVMLKASWGGGGRGMRVIRSEADLAKEVTEAKREAMAAFGKDEVYLEKLVERARHVESQILGDTHGNVVHLFERDCSVQRRNQKVVERAPAPYLSEAQRQELAAYSLKIAGATNYIGAGTVEYLMDADTGKFYFIEVNPRIQVEHTVTEVVTGIDIVKAQIHILDGAAIGTPQSGVPNQEDIRLNGHALQCRVTTEDPEHNFIPDYGRITAYRSASGFGIRLDGGTSYSGAIITRYYDPLLVKVTAWAPNPLEAISRMDRALREFRIRGVATNLTFLEAIIGHPKFRDNSYTTRFIDTTPELFQQVKRQDSATKLLTYLADVTVNGHPEAKDRPKPLENAARPVVPYANGNGVKDGTKQLLDTLGPKKFGEWMRNEKRVLLTDTTMRDGHQSLLATRMRTYDIARIAGTYSHALPNLLSLECWGGATFDVSMRFLTEDPWERLALIREGAPNLLLQMLLRGANGVGYTNYPDNVVKYFVRQAAKGGIDLFRVFDCLNWVENMRVSMDAIAEENKLCEAAICYTGDILNSARPKYDLKYYTNLAVELEKAGAHIIAVKDMAGLLKPAAAKVLFKALREATGLPIHFHTHDTSGIAAATVLAAVEAGVDAVDAAMDALSGNTSQPCLGSIVEALSGSERDPGLDPAWIRRISFYWEAVRNQYAAFESDLKGPASEVYLHEMPGGQFTNLKEQARSLGLETRWHQVAQAYADANQMFGDIVKVTPSSKVVGDMALMMVSQDLTVADVVSPDREVSFPESVVSMLKGDLGQPPSGWPEALQKKALKGEKPYTVRPGSLLKEADLDAERKVIEKKLEREVSDFEFASYLMYPKVFTDFALASDTYGPVSVLPTPAYFYGLADGEELFADIEKGKTLVIVNQAVSATDSQGMVTVFFELNGQPRRIKVPDRAHGATGAAVRRKAEPGNAAHVGAPMPGVISRVFVSSGQAVNAGDVLVSIEAMKMETAIHAEKDGTIAEVLVKAGDQIDAKDLLAVYGG
modifications: covalently attached biotin prosthetic group on the BCCP domain
B2: Rhizobium etli pyruvate carboxylase R472K (enzyme, UniProt Q2K340 1-1154, looked up)
chain: B1 chain with S472K
modifications: covalently attached biotin prosthetic group on the BCCP domain
B3: Rhizobium etli pyruvate carboxylase R427K (enzyme, UniProt Q2K340 1-1154, looked up)
chain: B1 chain with R427K, S472R
modifications: covalently attached biotin prosthetic group on the BCCP domain

How the values were obtained:
[1] = biological target: the molecule itself; assay: AUC
[2] = biological target: the molecule itself; assay: AUC; remark: listed apart in the source

| Protein | stoichiometry N [1] | % tetramer [2] [%] |
| --- | --- | --- |
| B1 | 4 | 72 |
| B2 | 4 | – |
| B3 | 4 | 75 |
